{"source": "patent US20230226096A1", "about": "(Orna Therapeutics, Inc., priority 2020, published 2023)", "molecules": {"B1": {"name": "HRVB27 (nucleic acid, listed as Rhinovirus sp.)", "DNA": "TTAAAACAGCGGATGGGTATCCCACCATCCGACCCACAGGGTGTAGTGCTCTGGTATTTTGTACCTTTGCACGCCTGTTTCCCCATTGTACCCCTCCTTAAATTTCCTCCCCAAGTAACGTTAGAAGTTTAAGGAAACAAATGTACAATAGGAAGCATCACATCCAGTGGTGTTATGTACAAGCACTTCTGTTTCCCCGGAGCGAGGTATAAGTGGTACCCACCGCCGAAAGCCTTTAACCGTTATCCGCCAATCAACTACGTAATGGCTAGTATTACCATGTTTGTGACTTGGTGTTCGATCAGGTGGTTCCCCCCACTAGTTTGGTCGATGAGGCTAGGAACTCCCCACGGGTGACCGTGTCCTAGCCTGCGTGGCGGCCAACCCAGCTTTTGCTGGGACGCCTTTTTACAGACATGGTGTGAAGACCTGCATGTGCTTGATTGTGAGTCCTCCGGCCCCTGAATGCGGCTAACCTTAACCCCGGAGCCTTGCAACATAATCCAATGTTGTTGAGGTCGTAATGAGTAATTCTGGGATGGGACCGACTACTTTGGGTGTCCGTGTTTCCTTTTATTCTTTATATTGTCTTATGGTCACAGCATATATAGCATATATACTGTGATC"}, "B2": {"name": "HRVA73 (nucleic acid, listed as Rhinovirus sp.)", "DNA": "TTAAAACTGGGTTTGGGTTGTTCCCACCCAAACCACCCACGCGGTGTTGTACACTGTTATTCCGGTAACCTTGTACGCCAGTTTTATATCCCTTCCCCCCCTTGTAACTTAGAAGACATGCGAATCGACCAATAGCAGGCAATCAACCAGATTGTCACCGGTCAAGCACTTCTGTTTCCCCGGCTCTCGTTGATATGCTCCAACAGGGCAAAAACAATTGGAGTCGTTACCCGCAAGATGCCTACGCAAAACCTAGTAGCATCTTCGAAGATTTTTGGTTGGTCGCTCAGTTGCTACCCCAGCAATAGACCTGGCAGATGAGGCTAGAAATACCCCACTGGTGACAGTGTTCTAGCCTGCGTGGCTGCCTGCACACCCACACGGGTGTGAAGCCAAAGATTGGACAAGGTGTGAAGAGTCACGTGTGCTCATCTTGAGTCCTCCGGCCCCTGAATGCGGCTAACCTTAACCCCGTAGCCATTGCTCGCAATCCAGCGAGTATATGGTCGTAATGAGTAATTACGGGATGGGACCGACTACTTTGGGTGTCCGTGTTTCACTTTTTACTTATCAATTTGCTTATGGTGACAATATATATAGATATATATTGACACC"}, "B3": {"name": "PSIV (2x mut for Xba1) (nucleic acid)", "DNA": "GCAAAATGGGTACGTAGTTAACCACTGCGTATCAGGATTGCAGGCCACGAAGGGTATTTGCATATCTTTCTATGCGGTATTACGGCTTAAAACCCGTTGTATCTTGTTGTTTGACTGCCTGTATCACTAGTGGCCATTTTATTTAGGTTAGAGACCCCTGATAGTAGGAGAGTTACAAACTCTTTAAAAATTGTTGACCCCGGAAAAGATGGTGACCCCTGTAAGTAGTTGATCAAGAAGATCTATGCGCTGGCATAGTAATCCAGTGTTTCCTGTTTTAGGATGACCTCTGAAAGTAGATGACCGTGGAAAGTCACGTAGTGCCCCAATAAGCACGTTTGGGCAGCGTGCGCTATCACAAGGCTTGATCTCCGAGGAGCCCCTTGTTTTAGCTGGCTGGAAGCCAATGATCTTAAGTAGATAAGTGCTGTTGCTTGTAGTTCAACAGAAAGCTTTGAGTACGTCTTTCTTGCGAGAAAGAACACATGCATTCTTATGCTCTCAATTCTATTATTTTTATTTTGGGCGAAAGGAAAGCTCTCACGCGAGTACGAATAGCCAACCCTTTAT"}, "B4": {"name": "EV K (nucleic acid)", "DNA": "TCAGCCTGACGCAAGTGCCTCCATTGGAGTCTCTCCAAGCCCTCCGGGGCTTGGAGGGCGCCGACCCCCTGCCTAGGGGGAGCCCACGACACGGCTGGAGTCCATTGGCACACCGCAGCCACGATTCAAGCCAGAATTGAAAGCGGGAAGCACTTCTGTCTCCCCGGTGTGGATCATACGCTGTACCCACGGCGAAAAGTGAAGCATCGTTACCCGACTCGGTACTTCGAGAAGCCCAGTACAGTTGTGGATCTCTGCAGGGTATACGCTCAGCGTGACCCCTACGTAGTTCCTTGAGATGGCTGAGAGAACACCCCACGGGCGACCGTGTCTCTCGGCGCGTGGCTCAAGGCCGGGCCTTCAGTGGCTCGGTGCCTTGCAGAGTGAAGCCTCCGAACAGCCTATTGAGCTACCGTTTAGCCTCCGCCCTCTTGAATGCGGCTAATCCTAACCATGGAGCGCCCGCCCACAGTCCAGTGGGTAGAGCGTCGTAACGCGCAAGTCCGTGGCGGAACCGACTACTTTAGAGTGGCGTGTTTCCAATTTATCCTTTATAAAGTTGCTTATGGTGACACCACAAGAGATCCACGATTTCTTGTTTCTTATCACTGAGACACAAGTCATATTCATCAATCTTTATTGCGGAATTAACTTGGTGCGTCCAAACACATCAGC", "modifications": "Enterovirus K"}, "B5": {"name": "HRVC3 QPM (nucleic acid, listed as Rhinovirus sp.)", "DNA": "TTAAAGCTGGATCATGGTTGTTCCCACCATGATTACCCACGCGGTGCAGTGGTCTTGTATTACGGTACATTTCCATACCAGTTTTATACACCCCACCCCGAAACTCATAGAAGTTTGTACACAATGACCAATAGGTGGTGGCCATCCAGGTCGCTAATGGTCAAGCACTTCTGTTTCCCCGGCACCCTTGTATACGCTTCACCCGAGGCGAAAAATGAGGTTGTCGTTATCCGCAAAGTGCCTACGAAAAGCCTAGTAACACTTTGAAAACCCATGGTTGGTCGCTCAGCTGTTTACCCAACAGTAGACCTGGCAGATGAGGCTAGACATTCCCCACCAGCGATGGTGGTCTAGCCTGCGTGGCTGCCTGCACACCCTGCCGGGTGTGAAGCCAGAAAGTGGACAAGGTGTGAAGAGCCTATTGTGCTCACTTTGAGTCCTCCGGCCCCTGAATGTGGCTAACCCTAACCCCGTAGCTGTTGCATGTAACCCAACATGTATGCAGTCGTAATGGGCAACTATGGGATGGGACCAACTACTTTGGGTGTCCGTGTTTCCTGTTTTACTTTTTCATTGCTTATGGTGACAATTGTATCTGATACACTTGTTACC"}, "B6": {"name": "Boosepivirus B (nucleic acid)", "DNA": "TTTTCTCCCCTCCCCCTCCAACTACCTTTTCCCCCTCTTGTAACGCTAGAAGTTTGTGCAAACCGCCTGTAGGGTACTGCAATCCAGCAGTGCATAGGCTAAGCTTTTCTTGTTACCCCACCCCACATTATACTGAGGAGGATTGTGAAATTGTGTTAGTATGGGTTAGTAGCGGTGACCCGGGTAACCCCAACCCAGAAACTCACGGATGAGATGAACAGGACCCCACATGGTAACGTGTGTGTTCGTCTGCCCCGCAAGGTGAGGCCGTGAGAGCTTTGCACGCGAAAACCTTGAAAACCCAAAAGTACCTTGAGCTCTTCGCTATTTTGTGTTTCCTCCAGGACCCTGAATGCGGCTAAACCTAACCCGCGATCCGCACGTAGCAACCCAGCTAGAGTGTGGTCGTAATGCGCAAGTTGCGGGCGGTACCGACTACTTTGGTGTTCCTGTGTTTCCTTTATTTTATTTTGAATTTTTATGGTGACAACAGCTAGAAAATAAGAGTGAAC", "modifications": "Boosepivirus B"}, "B7": {"name": "EV L (nucleic acid)", "DNA": "ACATGGGCCAGCCCACCACACCCACTGGGTGTAGTAGTCTGGTTCTATGGAACCTTTCTACGCCTCTTTTGCTTCCCTCCCCCATTTCTCCTTCGATTGCTCCACCTGTGATCTTTGCAACTTAGAAGAAATAATGAACCCGCACAATAGCGGGCGCTGAGCCACAGCGTCAATGTGCAAGCACTTCTGTTTCCCCGGAATGGGCCCATAGGCTGTACCCACGGCTGAAAGGGACCGGCCCGTTACCCGCCTTGGTACTGCGAGAATGTTAGTAACTCCCTCGATAGCTTTAGGCGTTACGCTCAGCCCTTTGAGCCCGAAGGGTAGTTCGGGTCGATGAGGCTCGTCATTCCCCACTGGCGACAGTGTGACTTGCCTGCGTTGGCGGCCCGGGGTGGGGGGCAACCCCCATCCACGCCTACTGAAGGACAGGGTGTGAAGGCGCTATTGCGCTACTAAGGAGTCCTCCGGCCCCTGAATGCGGCTAACCCGAACCCCGAGCCCACGGTGGTAAACCCGCCACAAGTGGGTCGTAATGAGTAATTTGGGGCAGGGACCGACTACTTTGGGTGTCCGTGTTTCCTGTTTTTCCATACGATGGCTGCTTATGGTGACAACCATAAGCAATTGGATTGGCCATCCGGTGTTCATATTGCGAAT", "modifications": "Enterovirus L"}, "B8": {"name": "EV J 1631 (nucleic acid, listed as Enterovirus sp.)", "DNA": "CACCCTGAGGGCCCACGTGGCGTAGTACTCTGGTATCAAGGTACCTTTGTACGCCTATTTTATTTCCCTTCCCCCACAGTAACTTAGAAGCTTATCTCATAGTTCAACAGTAGGGTCACTAACCAAGTGGCTCAGCGAACAAGCACTTCTGTTTCCCCGGTCCTAGTACCTGTGAAGCTGTACCCACGGCGGAAGGGGAAAAAGATCGTTATCCGGCCCCCTACTTCGGAAAGCCTAGTAACACCATTGAAGCAATCGAGTGTTGCGCTCAGCACAGTAACCCCTGTGTAGCTTTGGTTGATGAGTCTGGGCACTCCCCACTGGCGACAGCGGCCCAGGCTGCGTTGGCGGCCAACCGACTCGGGCAACCGGGTCGGACGCTCGTTTGTGGACATGGTGTGAAGAGCCTACTGAGCTAGAGGGTAGTCCTCCGGCCCCTGAATGCGGATAATCCTAACCCCGGAGCACCCACACTCAATCCAGAGTGCAGGATGTCGTAACGCGTAAGTCTGGGACGGAACCGACTACTTTGGGTGTCCGTGTTTCCTGTTTTACTTACTTTGGCTGCTTATGGTGACAATCTAGTGTTGTTACCATATAGCTATTGGATTGGCCATCCGGTGTTTTGAATTGTGTGTTTATACTAATTCTTTTACATATCACAGACAACCAAAT"}, "B9": {"name": "Phacovirus Pf-CHK1 (nucleic acid)", "DNA": "GTGTGTCATTTCTCCCCTCCCCCTCCCAAACCTTTTCCCCCTCTAATCGGATTGATTAACCCGGTTAAAGATGATTAATGGTTTGTGAGTTGATATGATGGCCCGGCATTGAATCCGGGAATTCTTAAGTAATGGAATTGCATCCAATATGAAAGTGAGTGTGGCAAGCTCACAAGTAGTACTTGGCTCTGCCCATTATTTGAGGACCAACTCTTCTTGACTACAATGTGTTTAAAGTAAACTGGACCACATTGTGTATCCAGACAACTCCATTTGATAATGTACGCTGGAAACGTTTTCAGTGCATAGGGTCCTAAAGTGGTGCTGAAATATTGCAAGCTCAATGGGATACTGAACGCTGAAAACCGCCGCTGTTATCATATGGGCCCCTAGTGGGTAAATGTTGGCTTTAGGCATATACTGCTTGGGAATGCAGTACTGGTTGTAGACAGGGTGATAGCCTACCGGCTGGCGTAGTTGAGTTGGTATAGCCAGTTGATTGCCAT"}}}
{"tested_on": "HEK293 cells", "type": "cell-based, human", "settings": "luminescence from secreted Gluc in supernatant 24 hours after transfection of HEK293 cells; circular RNA encoding Gluc with the named IRES (UTR truncated to 675 nt)"}
{"molecule": "B1", "Expression": "2.04E+08"}
{"molecule": "B2", "Expression": "1.08E+08"}
{"molecule": "B3", "Expression": "9.70E+04"}
{"molecule": "B4", "Expression": "7.52E+07"}
{"molecule": "B5", "Expression": "1.64E+07"}
{"molecule": "B6", "Expression": "1.17E+08"}
{"molecule": "B7", "Expression": "6.49E+07"}
{"molecule": "B8", "Expression": "9.88E+07"}
{"molecule": "B9", "Expression": "5.87E+06"}
